{
  "source": "paper PMC6797743",
  "about": "“Dual self-assembly of supramolecular peptide nanotubes to provide stabilisation in water” (Nature Communications, 2019)",
  "proteins": {"B1": {"name": "CP-(pDMA)2 (4), cyclic peptide-hydrophilic polymer conjugate (peptide)", "peptide": "cyclo([dL]K(pDMA)[dL]W[dL]K(pDMA)[dL]W)", "notes": "cyclo(D-Leu-Lys-D-Leu-Trp)2, printed in three-letter code; designed cyclic octapeptide of alternating D and L residues (cyclic peptide 10); the same CP as in m1; also called control conjugate; fully hydrophilic control conjugate"}},
  "biological_target": "the molecule itself",
  "experiment": "static light scattering (SLS); conjugates in water, 0.1-3.0 mg mL^-1, filtered (0.45 um PTFE); before and after 1 h of sonication (1 h and 3 days of standing); Nagg = molecular weight of the aggregate / molecular weight of the unimer; length = Nagg x 0.5 nm",
  "note": "[ ]: non-standard residue; d: D form. pDMA = poly(N,N-dimethylacrylamide) hydrophilic homopolymer (2)",
  "data": [
    {"protein": "B1", "values": [
      {"measurement": "stoichiometry N", "result": 25}
    ]}
  ]
}
